Assay [1] concerns the target T1, soluble human FcRn (human, UniProt P55899 24-297; P61769 21-119, biotinylated (Sulfo-NHS-LC-Biotin) in the ELISA; amine-coupled to CM5 chip in SPR).
T1 construct: also called shFcRn; biotinylated shFcRn
As to the kind of experiment: ELISA, competitor human IgG. On the technique in general: An ELISA detects its analyte on a solid surface through an enzyme-linked reagent.
Method: (§1) The wells were coated with 100 μl/well of 1 μg/ml biotinylated-shFcRn in Buffer A. The plate was sealed and incubated at 37° C. for 2 hours. Afterwards, the plate washed with 200 μl/well of Buffer B (Buffer B: 100 mM MES pH 6, 150 mM NaCl, 0.5% BSA IgG-free (Jackson ImmunoResearch, West Grove, Pa.), 0.05% Tween-20). […] To allow for mixing, the plate was rocked for 2 minutes, sealed and incubated at 37° C. for 2 hours. […] The plate was covered, incubated for 30 minutes at room temperature and washed 4 times with 200 μl/well of ice-cold buffer B. SureBlue TMB substrate solution (100 μl/well, KPL, Gaithersburg, Md.) was added and the plate was allowed to incubate at room temperature until color developed, which took 5 to 10 minutes. Once color developed, 100 μl/well of TMB stop solution (KPL, Gaithersburg, Md.) was added and the absorbance was measured at 450 nm. The data was plotted as absorbance vs. peptide concentration to derive the inhibitory concentration 50% (IC₅₀) values.

Assay [2] deals with T1, soluble human FcRn. Nature of the assay: SPR, pH 7.4. For orientation: SPR reads the build-up and loss of mass on a sensor chip optically.
Method: (§2) The following steps were performed to cross-link soluble human or cynomolgus FcRn to the dextran surface of a CM5 sensor chip (Biacore AB, Uppsala, Sweden) by an amine coupling reaction involving 1-ethyl-(3-dimethylaminopropyl)-carbodiimide hydrochloride (EDC) (Biacore AB, Uppsala, Sweden) and N-hydroxysuccinimide (NHS) (Biacore AB, Uppsala, Sweden) as recommended by Biacore (BIAapplications Handbook, version AB, section 4.2, Biacore AB, Uppsala, Sweden). […] Residual sites on the FcRn flow cell were blocked with 1 M ethanolamine hydrochloride pH 8.5 (Biacore AB, Uppsala, Sweden). A control flow cell was blocked with ethanolamine for reference subtraction. For analysis of the monomeric peptides, FcRn was coated to a final density of 4000-5000 response units (RU). For analysis of the peptide dimers, FcRn was coated to a density of 2000-2500 RU. All SPR measurements were performed using a BIACORE 3000 Instrument (Biacore AB Uppsala, Sweden). For measurements done at either pH 6 or pH 7.4, experiments were performed in 50 mM phosphate, 100 mM sodium chloride, 0.01% surfactant P20 (Biacore AB, Uppsala, Sweden).
(§3) Ten, 2-fold dilutions of the peptide were injected over the FcRn-CM5 chip at a rate of 20 μl/min for 2 min. The peptide was dissociated from the chip for 2.5 minutes with buffer. […] Sensorgrams were generated and analyzed using BiaEval software version 3.1 (Biacore AB, Uppsala, Sweden). […]
Assay [3] has as its target T1, soluble human FcRn. Nature of the assay: SPR, pH 6.
Method: as §2, §3
In assay [4] the target is T1, soluble human FcRn. Nature of the assay: SPR, pH 7.4. This is another data set of the same source.
Method: as §2, §3
In assay [5] the target is T1, soluble human FcRn. As to the kind of experiment: ELISA, competitor human IgG. The source holds these as a separate data set.
Method: as §1
Assay [6] deals with T1, soluble human FcRn. Nature of the assay: SPR, pH 7.4. The source holds these as a separate data set.
Method: as §2, §3
In assay [7] the target is T1, soluble human FcRn. As to the kind of experiment: ELISA, competitor human IgG. The source holds these as a separate data set.
Method: as §1
The target in assay [8] is T1, soluble human FcRn. As to the kind of experiment: SPR, pH 6. The source holds these as a separate data set.
Method: as §2
(§4) Ten, 2-fold dilutions of the peptide were injected over the FcRn-CM5 chip at a rate of 20 μl/min for 2 min. The peptide was dissociated from the chip for 2.5 minutes with buffer. Any remaining peptide was removed from the chip with a 30 second injection of HBS-P buffer (Biacore AB, Uppsala, Sweden) at a rate of 30 μl/min. Sensorgrams were generated and analyzed using BiaEval software version 3.1 (Biacore AB, Uppsala, Sweden). The equilibrium RU observed for each injection was plotted against concentration. The equilibrium KD values were derived by analysis of the plots using the steady state affinity model included in the BiaEval software.
The target in assay [9] is T1, soluble human FcRn. Nature of the assay: SPR, pH 7.4. The source holds these as a separate data set.
Method: as §2, §3
For assay [10], the target named is T1, soluble human FcRn. Nature of the assay: SPR, pH 6. This is another data set of the same source.
Method: as §2, §4
Assay [11] concerns the target T1, soluble human FcRn. As to the kind of experiment: ELISA, competitor human IgG. The source holds these as a separate data set.
Method: as §1
Assay [12] concerns the target T1, soluble human FcRn. As to the kind of experiment: SPR, pH 7.4. The source holds these as a separate data set.
Method: as §2, §3
Assay [13] has as its target T1, soluble human FcRn. As to the kind of experiment: SPR, pH 6. The source holds these as a separate data set.
Method: as §2, §4
Assay [14] deals with T1, soluble human FcRn. Nature of the assay: SPR, pH 7.4. This is another data set of the same source.
Method: as §2, §3
Assay [15] deals with T1, soluble human FcRn. As to the kind of experiment: ELISA, competitor human IgG. The source holds these as a separate data set.
Method: as §1
Assay [16] has as its target T1, soluble human FcRn. Nature of the assay: SPR, pH 6. The source holds these as a separate data set.
Method: as §2, §3

Where two headings read alike, the source gives them in different places. Bridge positions count the residues as written; N and C are the ends. Square brackets hold non-standard residues; d marks the D form. Ends that are not written are not given here. Pen = CC(C)(S)[C@H](N)C(=O)O

T1 sequence (P55899 24-297 limits assumed, chain 1 of 2): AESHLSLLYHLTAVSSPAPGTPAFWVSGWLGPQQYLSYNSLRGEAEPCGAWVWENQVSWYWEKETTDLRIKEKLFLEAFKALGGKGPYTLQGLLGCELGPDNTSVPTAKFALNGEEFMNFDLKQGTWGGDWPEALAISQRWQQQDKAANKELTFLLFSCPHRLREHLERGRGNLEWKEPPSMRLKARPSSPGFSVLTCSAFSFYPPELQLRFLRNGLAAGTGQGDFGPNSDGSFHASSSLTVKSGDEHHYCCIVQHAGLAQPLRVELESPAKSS
T1 sequence (P61769 21-119 limits assumed, chain 2 of 2): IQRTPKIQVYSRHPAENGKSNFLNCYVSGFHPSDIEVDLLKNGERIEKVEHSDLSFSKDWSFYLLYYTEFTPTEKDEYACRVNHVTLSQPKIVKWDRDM

B1: Peptide No. 122 (peptide)
peptide: QRFDTGHFGGLYPKNGP
modifications: also: bromoacetylated peptide joined to a SATP-derivatized peptide (dimer), further groups not given here
One may read the IC50 as the concentration at which inhibition is half-maximal. Low values mean higher potency, high ones lower potency. One may read the Kd as a measure of binding affinity in units of concentration. In the assay with soluble human FcRn [1], B1 had a half-maximal inhibitory concentration (IC50) of 0.97 µM. Also, the Kd turned out to be 0.12 µM with soluble human FcRn [2] and 0.006 µM with soluble human FcRn [3].

B2: Peptide No. 80 (peptide)
peptide: QRFKTGHFGGLYPDNGP-NH2
modifications: lactam 4-14; N-terminus assumed
SMILES: CC(C)C[C@@H]1NC(=O)CNC(=O)CNC(=O)[C@H](Cc2ccccc2)NC(=O)[C@H](Cc2c[nH]cn2)NC(=O)CNC(=O)[C@H]([C@@H](C)O)NC(=O)[C@@H](NC(=O)[C@H](Cc2ccccc2)NC(=O)[C@H](CCCNC(=N)N)NC(=O)[C@@H](N)CCC(N)=O)CCCCNC(=O)C[C@@H](C(=O)N[C@@H](CC(N)=O)C(=O)NCC(=O)N2CCC[C@H]2C(N)=O)NC(=O)[C@@H]2CCCN2C(=O)[C@H](Cc2ccc(O)cc2)NC1=O
As to B2, in the assay with soluble human FcRn [4], the affinity, expressed as Kd, was 52 µM. In addition, in the assay with soluble human FcRn [5], the IC50 was 60 µM.

In turn, QRFXTGHFGGLXPCNGP (Pen at 4; 4-fluoro-Phe at 12; disulfide; C-terminal amide) [Peptide No. 140] had a Kd with soluble human FcRn [6] of 24 µM. In the assay with soluble human FcRn [7], this molecule registered a 50% inhibitory concentration (IC50) of 26 µM.

B3: Peptide No. 100 (peptide)
peptide: QRFDTGHFGGLYPKNGP
modifications: also: N-termini joined through a bis-thiol linker (bromoacetylated peptide), bridge as drawn, places not given here
Regarding B3, the 50% inhibitory concentration (IC50) with soluble human FcRn [1] was 0.76 µM. For the same molecule, the Kd was found to be 0.13 µM with soluble human FcRn [2] and 0.006 µM with soluble human FcRn [3].

In the case of QRFXTGHFGGLYPDNGP (Dab at 4; side-chain lactam bridge Dab 4-Asp 14; C-terminal amide) [Peptide No. 81], the figures for the Kd with soluble human FcRn [4] and in the assay with soluble human FcRn [8] were 45 µM and 8.4 µM, respectively.

Consider QRFXTGHFGGHYPCNGP (Pen at 4; disulfide; C-terminal amide) [Peptide No. 84], for which the figures for the Kd with soluble human FcRn [9] and with soluble human FcRn [10] were 2.5 µM and 0.38 µM, respectively.

B4: Peptide No. 296 (peptide)
peptide: QRF[Pen]HGHFGGLYPCNGP-NH2
modifications: disulfide 4-14; N-terminus assumed
SMILES: CC(C)C[C@@H]1NC(=O)CNC(=O)CNC(=O)[C@H](Cc2ccccc2)NC(=O)[C@H](Cc2c[nH]cn2)NC(=O)CNC(=O)[C@H](Cc2c[nH]cn2)NC(=O)[C@@H](NC(=O)[C@H](Cc2ccccc2)NC(=O)[C@H](CCCNC(=N)N)NC(=O)[C@@H](N)CCC(N)=O)C(C)(C)SSC[C@@H](C(=O)N[C@@H](CC(N)=O)C(=O)NCC(=O)N2CCC[C@H]2C(N)=O)NC(=O)[C@@H]2CCCN2C(=O)[C@H](Cc2ccc(O)cc2)NC1=O
Consider B4, for which, in the assay with soluble human FcRn [11], the IC50 is 3 µM. Moreover, the values for the Kd with soluble human FcRn [12] and in the assay with soluble human FcRn [13] were 0.96 µM and 0.15 µM, respectively.

In the assay with soluble human FcRn [14], QRFCTGHFG[dA]LYPCNGP-NH2 (disulfide 4-14 (inferred)) [Peptide No. 23] displayed a Kd of 184 µM. This molecule also registered an IC50 with soluble human FcRn [15] of 57 µM.

In the assay with soluble human FcRn [15], QRFCTGHF[dA][dA]LYPCNGP-NH2 (disulfide 4-14 (inferred)) [Peptide No. 24] came in with an IC50 of 69 µM. Further, the Kd with soluble human FcRn [16] was found to be 22 µM.

Values taken from patent US20070254831A1 (published 2007).
